In US20150065381A1:
Values joined by “and” are separate entries in the source; they are usually repeats but may differ in a detail not shown here. Equal values may be shown once.

What was measured:
[1] = biological target: HIV-1 envelope of gp160 clone B-Acute-010.c09 (HIV-1); assay: capture ELISA, plate 2, mAb 2.5 ug/ml
[2] = biological target: HIV-1 envelope of gp160 clone B-Acute-008.c11 (HIV-1); assay: capture ELISA, plate 2, mAb 2.5 ug/ml
[3] = biological target: HIV-1 envelope of gp160 clone AG-010.c11 (HIV-1); assay: capture ELISA, plate 2, mAb 2.5 ug/ml
[4] = biological target: HIV-1 16055 envelope (HIV-1); assay: capture ELISA, plate 2, mAb 2.5 ug/ml
[5] = biological target: HIV-1 envelope of gp160 clone B-Acute-009-c08 (HIV-1); assay: capture ELISA, plate 2, mAb 2.5 ug/ml
[6] = biological target: HIV-1 JRFL envelope (HIV-1); assay: capture ELISA, plate 1, mAb 7.5 ug/ml
[7] = biological target: HIV-1 envelope clone G-011.c02 (multiclade gp160 clone panel) (HIV-1); assay: capture ELISA, plate 1, mAb 7.5 ug/ml
[8] = biological target: HIV-1 envelope of gp160 clone B-Chronic-014.c02 (HIV-1); assay: capture ELISA, plate 1, mAb 7.5 ug/ml
[9] = biological target: HIV-1 envelope clone G-011.c05 (multiclade gp160 clone panel) (HIV-1); assay: capture ELISA, plate 1, mAb 7.5 ug/ml
[10] = biological target: HIV-1 envelope of gp160 clone B-Acute-010.c08 (HIV-1); assay: capture ELISA, plate 1, mAb 7.5 ug/ml
[11] = biological target: HIV-1 JRCSF envelope (HIV-1) (UniProt P20871); assay: capture ELISA, plate 1, mAb 7.5 ug/ml
[12] = biological target: HIV-1 envelope of gp160 clone B-Acute-010.c09 (HIV-1); assay: capture ELISA, plate 1, mAb 7.5 ug/ml
[13] = biological target: HIV-1 envelope of gp160 clone B-Acute-008.c11 (HIV-1); assay: capture ELISA, plate 1, mAb 7.5 ug/ml
[14] = biological target: HIV-1 envelope of gp160 clone AG-010.c14 (HIV-1); assay: capture ELISA, plate 1, mAb 7.5 ug/ml
[15] = biological target: HIV-1 envelope of gp160 clone AG-010.c11 (HIV-1); assay: capture ELISA, plate 1, mAb 7.5 ug/ml
[16] = biological target: HIV-1 16055 envelope (HIV-1); assay: capture ELISA, plate 1, mAb 7.5 ug/ml
[17] = biological target: HIV-1 envelope of gp160 clone B-Acute-009-c08 (HIV-1); assay: capture ELISA, plate 1, mAb 7.5 ug/ml
[18] = biological target: HIV-1 JRFL envelope (HIV-1); assay: capture ELISA, plate 2, mAb 7.5 ug/ml
[19] = biological target: HIV-1 envelope clone G-011.c02 (multiclade gp160 clone panel) (HIV-1); assay: capture ELISA, plate 2, mAb 7.5 ug/ml
[20] = biological target: HIV-1 envelope of gp160 clone B-Chronic-014.c02 (HIV-1); assay: capture ELISA, plate 2, mAb 7.5 ug/ml
[21] = biological target: HIV-1 envelope clone G-011.c05 (multiclade gp160 clone panel) (HIV-1); assay: capture ELISA, plate 2, mAb 7.5 ug/ml
[22] = biological target: HIV-1 envelope of gp160 clone B-Acute-010.c08 (HIV-1); assay: capture ELISA, plate 2, mAb 7.5 ug/ml
[23] = biological target: HIV-1 JRCSF envelope (HIV-1) (UniProt P20871); assay: capture ELISA, plate 2, mAb 7.5 ug/ml
[24] = biological target: HIV-1 envelope of gp160 clone B-Acute-010.c09 (HIV-1); assay: capture ELISA, plate 2, mAb 7.5 ug/ml
[25] = biological target: HIV-1 envelope of gp160 clone B-Acute-008.c11 (HIV-1); assay: capture ELISA, plate 2, mAb 7.5 ug/ml
[26] = biological target: HIV-1 envelope of gp160 clone AG-010.c14 (HIV-1); assay: capture ELISA, plate 2, mAb 7.5 ug/ml
[27] = biological target: HIV-1 envelope of gp160 clone AG-010.c11 (HIV-1); assay: capture ELISA, plate 2, mAb 7.5 ug/ml
[28] = biological target: HIV-1 16055 envelope (HIV-1); assay: capture ELISA, plate 2, mAb 7.5 ug/ml
[29] = biological target: HIV-1 envelope of gp160 clone B-Acute-009-c08 (HIV-1); assay: capture ELISA, plate 2, mAb 7.5 ug/ml
[30] = biological target: HIV-1 envelope clone F1-002.c16 (multiclade gp160 clone panel) (HIV-1); assay: capture ELISA, plate 1, mAb 7.5 ug/ml
[31] = biological target: HIV-1 envelope clone F1-002.c11 (multiclade gp160 clone panel) (HIV-1); assay: capture ELISA, plate 1, mAb 7.5 ug/ml
[32] = biological target: HIV-1 envelope clone BF-002.c08 (multiclade gp160 clone panel) (HIV-1); assay: capture ELISA, plate 1, mAb 7.5 ug/ml
[33] = biological target: HIV-1 envelope clone BF-002.c05 (multiclade gp160 clone panel) (HIV-1); assay: capture ELISA, plate 1, mAb 7.5 ug/ml
[34] = biological target: HIV-1 envelope clone F1-002.c16 (multiclade gp160 clone panel) (HIV-1); assay: capture ELISA, plate 2, mAb 7.5 ug/ml
[35] = biological target: HIV-1 envelope clone F1-002.c11 (multiclade gp160 clone panel) (HIV-1); assay: capture ELISA, plate 2, mAb 7.5 ug/ml
[36] = biological target: HIV-1 envelope clone BF-002.c08 (multiclade gp160 clone panel) (HIV-1); assay: capture ELISA, plate 2, mAb 7.5 ug/ml
[37] = biological target: HIV-1 envelope clone BF-002.c05 (multiclade gp160 clone panel) (HIV-1); assay: capture ELISA, plate 2, mAb 7.5 ug/ml

Substance	ELISA OD [1] [OD]	ELISA OD [2] [OD]	ELISA OD [3] [OD]	ELISA OD [5] [OD]	ELISA OD [7] [OD]	ELISA OD [8] [OD]	ELISA OD [9] [OD]	ELISA OD [10] [OD]	ELISA OD [11]	ELISA OD [12] [OD]	ELISA OD [13] [OD]	ELISA OD [14] [OD]	ELISA OD [15] [OD]	ELISA OD [17] [OD]	ELISA OD [19] [OD]	ELISA OD [20] [OD]	ELISA OD [21] [OD]	ELISA OD [22] [OD]	ELISA OD [23]	ELISA OD [24] [OD]	other results
PG9 (antibody)	0.106	0.168	0.597	0.07	0.108	2.35	0.37	0.547	0.411 OD and 0.454 OD	0.199	0.363	1.22	0.891	0.115	0.099	1.48	0.235	0.33	0.211 OD and 0.205 OD	0.151	ELISA OD [4]: 0.225 OD and 0.219 OD; ELISA OD [6]: 0.072 OD and 0.11 OD; ELISA OD [16]: 0.519 OD and 0.367 OD; ELISA OD [18]: 0.07 OD and 0.054 OD; ELISA OD [25]: 0.204 OD; ELISA OD [26]: 0.852 OD; ELISA OD [27]: 0.65 OD; ELISA OD [28]: 0.263 OD and 0.251 OD; ELISA OD [29]: 0.114 OD
PG16 (antibody)	0.155	0.267	0.272	0.07	0.069	0.476	0.158	0.272	0.248 OD and 0.287 OD	0.282	0.205	0.817	0.332	0.083	0.097	0.513	0.153	0.301	0.226 OD and 0.245 OD	0.244	ELISA OD [30]: 0.244 OD; ELISA OD [6]: 0.173 OD and 0.159 OD; ELISA OD [31]: 0.168 OD; ELISA OD [32]: 0.168 OD; ELISA OD [16]: 0.215 OD and 0.16 OD; ELISA OD [33]: 0.971 OD; ELISA OD [34]: 0.217 OD; ELISA OD [35]: 0.154 OD; ELISA OD [36]: 0.164 OD; ELISA OD [25]: 0.215 OD; ELISA OD [26]: 0.8 OD; ELISA OD [27]: 0.302 OD; ELISA OD [37]: 0.764 OD; ELISA OD [29]: 0.092 OD
PGT145 (antibody)	0.074	0.103	0.08	0.11	0.129	0.106	0.133	0.179	0.071 OD and 0.084 OD	0.084	0.146	0.07	0.082	0.109	0.112	0.092	0.138	0.276	0.111 OD and 0.089 OD	0.11	ELISA OD [4]: 0.079 OD and 0.067 OD; ELISA OD [6]: 0.076 OD and 0.075 OD; ELISA OD [16]: 0.085 OD and 0.077 OD; ELISA OD [34]: 0.518 OD; ELISA OD [18]: 0.093 OD and 0.082 OD; ELISA OD [35]: 0.099 OD; ELISA OD [36]: 0.074 OD; ELISA OD [25]: 0.148 OD; ELISA OD [26]: 0.094 OD; ELISA OD [27]: 0.146 OD; ELISA OD [28]: 0.117 OD and 0.09 OD; ELISA OD [37]: 0.649 OD; ELISA OD [29]: 0.15 OD
PGV04 (antibody)	2.1	0.078	0.151	0.155	0.865	4	0.451	2.65	2.15 OD and 2.33 OD	2.87	0.07	0.293	0.184	0.237	1.25	4	0.719	3.25	2.78 OD and 2.65 OD	3.44	ELISA OD [30]: 0.54 OD; ELISA OD [31]: 0.28 OD; ELISA OD [32]: 2.72 OD; ELISA OD [33]: 4 OD; ELISA OD [34]: 0.626 OD; ELISA OD [35]: 0.506 OD; ELISA OD [36]: 3.2 OD; ELISA OD [25]: 0.109 OD; ELISA OD [26]: 1.68 OD; ELISA OD [27]: 0.22 OD; ELISA OD [37]: 4 OD; ELISA OD [29]: 0.459 OD
